Source: article PMC7203548

Columns and labels:
[1] = target: OTK1-5 K237A ectodomain, biotinylated (pHL-Avitag3) (Drosophila melanogaster) (UniProt Q6AWJ9); test: SPR; equilibrium, apparent KD; biotinylated OTK immobilised on SA chip from dialysed conditioned medium; Biacore T200, PBS, 0.05% Tween 20, 25°C
[2] = target: PlexA_(ecto) (full-length ectodomain of Drosophila Plexin A, all ten domains, residues 28-1272), biotinylated (Drosophila) (UniProt Q9V491); test: SPR; equilibrium, apparent KD; biotinylated PlexA constructs immobilised on SA chip from dialysed conditioned medium; Biacore T200, PBS, 0.05% Tween 20, 25°C
UniProt Q9V491, sequence (Q9V491 entry or part of it): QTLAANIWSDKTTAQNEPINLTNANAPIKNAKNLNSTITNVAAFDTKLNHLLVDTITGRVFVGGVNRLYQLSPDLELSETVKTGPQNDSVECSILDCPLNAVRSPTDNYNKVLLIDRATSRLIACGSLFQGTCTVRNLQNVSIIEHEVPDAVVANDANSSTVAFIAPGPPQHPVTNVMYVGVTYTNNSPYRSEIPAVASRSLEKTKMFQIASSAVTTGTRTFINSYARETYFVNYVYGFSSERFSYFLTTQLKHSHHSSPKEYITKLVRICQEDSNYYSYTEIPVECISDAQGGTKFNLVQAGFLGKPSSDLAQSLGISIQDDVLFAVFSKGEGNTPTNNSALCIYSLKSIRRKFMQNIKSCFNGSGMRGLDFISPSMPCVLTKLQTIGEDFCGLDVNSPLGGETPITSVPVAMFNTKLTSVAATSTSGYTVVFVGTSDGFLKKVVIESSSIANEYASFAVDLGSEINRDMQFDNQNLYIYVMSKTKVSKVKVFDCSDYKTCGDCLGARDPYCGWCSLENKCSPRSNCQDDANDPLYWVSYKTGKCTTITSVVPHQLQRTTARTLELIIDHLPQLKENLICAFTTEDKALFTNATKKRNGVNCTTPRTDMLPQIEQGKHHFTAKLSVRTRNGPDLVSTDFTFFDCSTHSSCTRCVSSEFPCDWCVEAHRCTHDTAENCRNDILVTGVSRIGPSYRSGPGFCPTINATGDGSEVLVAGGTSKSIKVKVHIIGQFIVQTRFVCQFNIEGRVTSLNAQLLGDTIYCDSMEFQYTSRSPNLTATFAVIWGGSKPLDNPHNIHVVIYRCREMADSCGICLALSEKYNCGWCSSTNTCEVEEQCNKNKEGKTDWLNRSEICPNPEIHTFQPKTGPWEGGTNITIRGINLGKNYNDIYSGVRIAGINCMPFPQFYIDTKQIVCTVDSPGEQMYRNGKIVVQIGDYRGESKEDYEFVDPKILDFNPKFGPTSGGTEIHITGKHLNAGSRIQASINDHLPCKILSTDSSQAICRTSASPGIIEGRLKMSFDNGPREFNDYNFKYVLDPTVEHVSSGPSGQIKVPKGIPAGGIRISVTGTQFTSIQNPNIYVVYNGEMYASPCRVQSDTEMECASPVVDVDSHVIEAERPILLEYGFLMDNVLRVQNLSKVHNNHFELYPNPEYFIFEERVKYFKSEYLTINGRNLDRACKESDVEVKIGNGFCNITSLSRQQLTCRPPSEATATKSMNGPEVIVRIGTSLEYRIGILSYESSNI

UniProt Q6AWJ9, sequence (Q6AWJ9 23-580 K237A): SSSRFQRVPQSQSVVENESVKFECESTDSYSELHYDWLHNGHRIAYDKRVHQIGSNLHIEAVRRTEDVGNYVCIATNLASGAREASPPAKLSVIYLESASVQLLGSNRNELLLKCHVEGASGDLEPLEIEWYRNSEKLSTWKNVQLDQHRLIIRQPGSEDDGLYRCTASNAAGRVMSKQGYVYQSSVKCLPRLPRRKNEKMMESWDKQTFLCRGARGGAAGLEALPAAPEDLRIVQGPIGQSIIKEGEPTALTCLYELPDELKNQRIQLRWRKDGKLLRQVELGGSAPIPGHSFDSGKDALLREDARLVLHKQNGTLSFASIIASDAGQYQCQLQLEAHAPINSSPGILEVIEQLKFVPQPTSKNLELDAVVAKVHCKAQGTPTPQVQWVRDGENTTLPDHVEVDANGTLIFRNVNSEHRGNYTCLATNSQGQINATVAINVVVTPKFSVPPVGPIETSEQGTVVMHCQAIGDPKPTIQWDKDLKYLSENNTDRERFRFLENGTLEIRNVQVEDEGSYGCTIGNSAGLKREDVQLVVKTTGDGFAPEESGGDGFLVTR

Kd [1]: 4 µM
Kd [2]: 7.4 µM
Substance: Sema1a ectodomain (Drosophila semaphorin 1a) (from UniProt Q24322 1-899) (ligand)
